Experimental data from publication PMC11878559.

Target: StbD antitoxin of plasmid pHNSHP45 (p45), untagged (plasmid pHNSHP45 (p45), studied in E. coli)
Assay: tricine-SDS-PAGE of the purified StbDE complex

StbD antitoxin of plasmid pHNSHP45 (p45), untagged (natural protein)
stoichiometry N: 2
